From article PMC13541614 (2026) come the findings set out here.

For the assay, the target named is H5N1 influenza hemagglutinin (HA) of A/Vietnam/1203/2004, native (wild type) (Influenza A virus A/Vietnam/1203/2004 …, biotin on the AviTag (expressed in the presence of BirA)). Description: BLI. (In BLI a coated tip is dipped into the sample, and binding shifts an interference pattern.)

B1: 13D4 (broadly neutralizing antibody targeting the head region of HA), IgG (antibody, V domains shown)
VH: QVQLQQSGAELMKPGASVKISCKATGYTFSGHWIEWVKQRPGHGLEWIGEILPGSGNIHYNEKFKGKATFAADTSSNTAYMQLSSLTSEDSAVYYCARLGTTAVERDWYFDVWGAGTTVTVSL
VL: DIVMTQSQKFMSASVGDRVSVTCKASQNVGTHLAWYQQKPGQSPKALIYSASYRYSGVPDRFTGSGSGTDFTLTISNVQSGDLADYFCQQYNNFPLTFGAGTKLEIK
As to B1, the Kd stood at 0.64 nM.

B2: CR6261 (broadly neutralizing antibody targeting the stem region of HA), IgG (antibody, V domains shown)
VH: EVQLVESGAEVKKPGSSVKVSCKASGGPFRSYAISWVRQAPGQGPEWMGGIIPIFGTTKYAPKFQGRVTITADDFAGTVYMELSSLRSEDTAMYYCAKHMGYQVRETMDVWGKGTTVTVSS
VL: QSVLTQPPSVSAAPGQKVTISCSGSSSNIGNDYVSWYQQLPGTAPKLLIYDNNKRPSGIPDRFSGSKSGTSATLGITGLQTGDEANYYCATWDRRPTAYVVFGGGTKLTVL
B2: the Kd amounted to 0.46 nM.

What is called Kd is the concentration at which binding is half-saturated.
